Earlier results in paper PMC7702019 (ACS chemical biology, 2020).
Bridges are numbered along the chain shown (N, C = ends). Where no end group is shown, it is not given here.

Settings: for amyloidogenicity: under normal conditions, rat and mouse amylin

Question: Which “amyloidogenicity relative to human amylin” value (porcine and bovine amylin) does the source give for “bovine amylin: bovine amylin (CGTATCETQRLANFLAPSSNKLGAIFSPTKMGSNTY; ends and bridges not checked; cysteine pairing not given here; UniProt Q28207 37-72, looked up)” here?
Answer: Its value is “much less amyloidogenic than human amylin”.

Question: What does the source list for “rat amylin: contains prolines at position 25, 28, and 29 and a H18R replacement relative to human amylin”?
Answer: amyloid formation in vitro (in vitro, reference not given): form amyloid in vitro, but only at very high non-physiological conditions; amyloidogenicity: not amyloidogenic under normal conditions

Question: Which amyloidogenicity in vitro (pramlintide, reference not given) does the source give for “Pramlintide: triple mutant of human amylin with A25, S28, and S29 replaced by Pro (KCNTATCATQRLANFLVHSSNNFGPILPPTNVGSNTY-NH2; disulfide 2-7; UniProt P10997 34-70, looked up, variant A25P S28P S29P)” here?
Answer: The amyloidogenicity in vitro was “not amyloidogenic in vitro, except at high concentrations”.

Question: With “H18R: H18R substitution of human amylin (literature) (KCNTATCATQRLANFLVRSSNNFGAILSSTNVGSNTY; ends and bridges not checked; cysteine pairing not given here; UniProt P10997 34-70, looked up, variant H18R)” as the substance, how does the “rate of amyloid formation in vitro” value (substitution in human amylin, in vitro) read?
Answer: The value was “reduces the rate of amyloid formation”.

Question: With “mouse amylin: identical sequence to rat amylin” as the substance, how does the amyloidogenicity read?
Answer: Its amyloidogenicity is “not amyloidogenic under normal conditions”.
